Laboratory results as given in PMC7547722, “A versatile soluble siglec scaffold for sensitive and quantitative detection of glycan ligands” (Nature Communications, 2020).
Several values for one entry are separate records, joined by “and”; a condition that tells them apart may be missing. Identical values can stand only once.

Key:
U937 cells = test: Flow cytometry, Siglec-Fc pre-complexed with Strep-Tactin, streptavidin or anti-human IgG1; assay type: cell-based; settings: U937; Strep-Tactin-AF647; replicates, Fig. 2
Description: (§1) Strep-Tactin-AF647 (0.55 μg/mL, 0.57 pmol), streptavidin (Biolegend), or anti-human igG1 (Biolegend) was added to Siglec supernatant (50 μL) or purified Siglec and allowed to sit at 4 °C for 15 min. After, the pre-complexed solution was added to cells in a 96-well U-bottom plate for 30 min at 4 °C. After, 200 μL of flow buffer (HBSS, 0.1% BSA, 5 mM EDTA) was added and the plate was spun down at 300 rcf for 5 min. The cells were resuspended in 200 μL of flow buffer and processed through the flow cytometer.
(§2) Flow cytometry was performed on a BD LSRFortessa™ X-20 cell analyzer using BD FACSDiva Software Version 8.0.1 and data was processed using FlowJo LLC. Version 9.9.6 and Graphpad Prism 8. The live, single cell populations were gated out with two gates to obtain the median fluorescence intensity (MFI), which indicates binding of the Siglec-Fc-secondary complex to the cell surface. Control cells that were incubated with Strep-Tactin-AF647 (0.55 μg/mL, 0.57 pmol) was used to determine the baseline fluorescence. Number of cells (# cells) plotted indicates percentage of max (% max).

A549 cells = test: Flow cytometry, pre-complexed Siglec-Fc binding; assay type: cell-based; settings: Strep-Tactin-AF647, replicates
Description: as §1, §2

HEK293T cells = test: Flow cytometry, pre-complexed Siglec-Fc binding; assay type: cell-based; settings: HEK; Strep-Tactin-AF647; replicates
Description: as §1, §2

HuH7 cells = test: Flow cytometry, pre-complexed Siglec-Fc binding; assay type: cell-based; settings: Strep-Tactin-AF647, replicates
Description: as §1, §2

Jurkat cells = test: Flow cytometry, pre-complexed Siglec-Fc binding; assay type: cell-based; settings: Strep-Tactin-AF647, replicates
Description: as §1, §2

K562 cells = test: Flow cytometry, pre-complexed Siglec-Fc binding; assay type: cell-based; settings: Strep-Tactin-AF647, replicates
Description: as §1, §2

BT549 = test: Flow cytometry, pre-complexed Siglec-Fc binding to breast cancer cell line; assay type: cell-based; settings: Strep-Tactin-AF647, replicates
Description: as §1, §2

HS578T = test: as above; assay type: cell-based; settings: Strep-Tactin-AF647, replicates
Description: as §1, §2

MCF7 = test: as above; assay type: cell-based; settings: Strep-Tactin-AF647, replicates
Description: as §1, §2

MDA-MB-231 = test: as above; assay type: cell-based; settings: Strep-Tactin-AF647, replicates
Description: as §1, §2

MDA-MB-468 = test: as above; assay type: cell-based; settings: Strep-Tactin-AF647, replicates
Description: as §1, §2

T47D = test: as above; assay type: cell-based; settings: Strep-Tactin-AF647, replicates
Description: as §1, §2

ZR-75-1 = test: as above; assay type: cell-based; settings: Strep-Tactin-AF647, replicates
Description: as §1, §2

basophils (CCR3+) = test: Siglec ligands on peripheral blood immune cells, flow cytometry; assay type: cell-based, human; settings: replicate values
Description: (§3) Siglec supernatant (50 μL) or purified Siglec was incubated with cells in a 96-well U-bottom plate for 30 min at 4 °C. Following the incubation, 200 μL of flow buffer (HBSS, 0.1% BSA, 5 mM EDTA) was added and the plate was spun down at 300 rcf for 5 min. Strep-Tactin-AF647 (0.55 μg/mL, 50 μL, 0.57 pmol), streptavidin (Biolegend), or anti-human IgG1 (Biolegend) was added to the cells and incubated for 30 min at 4 °C. After, 200 μL of flow buffer (HBSS, 0.1% BSA, 5 mM EDTA) was added and the plate was spun down at 300 rcf for 5 min. The cells were resuspended in 200 μL of flow buffer and processed through the flow cytometer.
as §1
(§4) For human splenocytes, the sample was homogenized in media through a 40 µm filter (Corning) under sterile conditions. Samples were centrifuged at 300 rcf for 5 min. The resulting pellet from the spleen sample and whole human blood were treated with RBC lysis buffer (7 min) and centrifuged at 300 rcf and the RBC lysis was repeated twice more until no RBC remained in the pellet. Samples were treated with human Fc-receptor blocking agent (TruStain FX, Biolegend) in flow buffer (HBSS, 0.1% BSA, 5 mM EDTA). For analysis, the following cocktail was used: hSig8 (PerCP/Cy5.5, clone 7C9, Biolegend cat. no. 347108, 1:200), hCD123 (PE/Cy7, clone 6H6, Biolegend cat. no. 306010, 1:200), hCD19 (PE, clone SJ25C1, Biolegend cat. no. 363004, 1:200), hCD3 (FITC, BD Pharmingen cat. no. 555332, 1:50), hCD14 (BV605, clone M5E2, BD Horizon cat. no. 564056, 1:200), hCD15 (BUV395, clone HI98, BD Horizon cat. no. 563872, 1:200), hCD56 (BV510, clone NCAM16.2, BD Horizon cat. no. 563041, 1:200). For human peripheral blood samples, we additionally used hHLA-DR (APC-Cy7, clone L243, Biolegend cat. no. 307618, 1:200). Pre-complexed Siglec-Fc/Strep-Tactin-AF647 (described above) was added to the antibody cocktail, added to cells, and allowed to stain at 4 °C for 45 min. The cells were then centrifuged at 300 rcf for 5 min and resuspended in flow buffer containing 1 µg/mL propidium iodide prior to analysis by flow cytometry.
as §2

eosinophils (Siglec-8+) = test: as above; assay type: cell-based, human; settings: replicate values
Description: as §3, §1, §4, §2

monocytes (CD14+) = test: as above; assay type: cell-based, human; settings: replicate values
Description: as §3, §1, §4, §2

B-cells (CD19+) = test: as above; assay type: cell-based, human; settings: replicate values
Description: as §4, §2

NK cells (CD56+) = test: as above; assay type: cell-based, human; settings: replicate values
Description: as §4, §2

T-cells (CD3+) = test: as above; assay type: cell-based, human; settings: replicate values
Description: as §4, §2

cDCs (CD123dim/HLA-DR+) = test: as above; assay type: cell-based, human; settings: cDC; replicate values
Description: as §4, §2

neutrophils (CD15+) = test: as above; assay type: cell-based, human; settings: replicate values
Description: as §4, §2

pDCs (CD123high/HLA-DR+) = test: as above; assay type: cell-based, human; settings: pDC; replicate values
Description: as §4, §2

[1] = system: neutrophils (CD15+), human splenocytes; test: Siglec-Fc (CD22-Fc V1/V2, with or without Fc receptor block) binding to splenocytes, flow cytometry; assay type: cell-based; settings: Suppl Fig 12; three replicate columns
Description: as §4, §2

[2] = system: B-cells (CD19+), human splenocytes; test: Siglec-Fc binding to splenocytes, flow cytometry; assay type: cell-based; settings: Suppl Fig 12; three replicate columns
Description: as §4, §2

[3] = system: NK cells (CD56+), human splenocytes; test: Siglec-Fc binding to splenocytes, flow cytometry; assay type: cell-based; settings: Suppl Fig 12; three replicate columns
Description: as §4, §2

[4] = system: T-cells (CD3+), human splenocytes; test: Siglec-Fc binding to splenocytes, flow cytometry; assay type: cell-based; settings: Suppl Fig 12; three replicate columns
Description: as §4, §2

[5] = system: monocytes (CD14+), human splenocytes; test: Siglec-Fc binding to splenocytes, flow cytometry; assay type: cell-based; settings: Suppl Fig 12; three replicate columns
Description: as §4, §2

[6] = system: peripheral blood immune cells; test: Comparison of 2-step and pre-complexed Siglec-Fc binding, flow cytometry (Figure 3e-g); assay type: cell-based, human; settings: Figure 3f; 2-Step; listed as Siglec-7-Fc R124A
[7] = system: U937 cells treated with neuraminidase; test: Pre-complexed Siglec-Fc staining of cells treated with Neu-S or Neu-A; assay type: cell-based
[8] = system: human peripheral blood monocytes; test: CD33-Fc binding to monocytes treated with Neu-S or Neu-A; assay type: cell-based; settings: Figure 6c; WT (no neuraminidase)
Description: as §1
For human splenocytes, the sample was homogenized in media through a 40 µm filter (Corning) under sterile conditions. Samples were centrifuged at 300 rcf for 5 min. The resulting pellet from the spleen sample and whole human blood were treated with RBC lysis buffer (7 min) and centrifuged at 300 rcf and the RBC lysis was repeated twice more until no RBC remained in the pellet. […]
as §2, with “Version 9.9.6 and Graphpad Prism 8.” left out, “Number of cells (# cells) plotted indicates percentage of max (% max).” left out

B1: Sig-7 R124A: Siglec-7-Fc essential arginine mutant (protein, UniProt Q9Y286 19-353, looked up, variant R124A)
extracellular domain: QKSNRKDYSLTMQSSVTVQEGMCVHVRCSFSYPVDSQTDSDPVHGYWFRAGNDISWKAPVATNNPAWAVQEETRDRFHLLGDPQTKNCTLSIRDARMSDAGRYFFAMEKGNIKWNYKYDQLSVNVTALTHRPNILIPGTLESGCFQNLTCSVPWACEQGTPPMISWMGTSVSPLHPSTTRSSVLTLIPQPQHHGTSLTCQVTLPGAGVTTNRTIQLNVSYPPQNLTVTVFQGEGTASTALGNSSSLSVLEGQSLRLVCAVDSNPPARLSWTWRSLTLYPSQPSNPLVLELQVHLGDEGEFTCRAQNSLGSQHVSLNLSLQQEYTGKMRPVSGVLL
modifications: extracellular domain fused to human IgG1 Fc
notes: Siglec-7-Fc essential arginine mutant
U937 cells
  binding of pre-complexed Siglec-Fc (MFI): 137 and 149 and 150
A549 cells
  binding of pre-complexed Siglec-Fc (MFI): 129 (2×) and 134
HEK293T cells
  binding of pre-complexed Siglec-Fc (MFI): 85 and 88.7 and 91
HuH7 cells
  binding of pre-complexed Siglec-Fc (MFI): 105
Jurkat cells
  binding of pre-complexed Siglec-Fc (MFI): 90.2 and 95.5 and 99.5
K562 cells
  binding of pre-complexed Siglec-Fc (MFI): 103 and 99.8 and 101
BT549
  binding of pre-complexed Siglec-Fc (MFI): 114 and 117 and 118
HS578T
  binding of pre-complexed Siglec-Fc (MFI): 148 and 144 and 145
MCF7
  binding of pre-complexed Siglec-Fc (MFI): 121 and 126 and 130
MDA-MB-231
  binding of pre-complexed Siglec-Fc (MFI): 165 and 175 and 187
MDA-MB-468
  binding of pre-complexed Siglec-Fc (MFI): 155 and 154 and 158
T47D
  binding of pre-complexed Siglec-Fc (MFI): 116 and 117 and 119
ZR-75-1
  binding of pre-complexed Siglec-Fc (MFI): 229 and 258 and 236
Basophils (CCR3+)
  Siglec-Fc binding (Figure 3d): 41.1 and 57.8 and 2.57
Eosinophils (Siglec-8+)
  Siglec-Fc binding (Figure 3d): -1.28 and 37.2 and 6.04
Monocytes (CD14+)
  Siglec-Fc binding (Figure 3d): 56.5 and 99 and 6.42
B-cells (CD19+)
  Siglec-Fc binding (Figure 3d): 52.4 and 51.4 and 53.1
NK cells (CD56+)
  Siglec-Fc binding (Figure 3d): 14.1 and 38.5 and 10.3
T-cells (CD3+)
  Siglec-Fc binding (Figure 3d): 7.7 and 27 and 12.8
cDCs (CD123dim/HLA-DR+)
  Siglec-Fc binding (Figure 3d): 70.6 and -20.5 and 24.4
Neutrophils (CD15+)
  Siglec-Fc binding (Figure 3d): 46.2 and 51.8 and 78.1
pDCs (CD123high/HLA-DR+)
  Siglec-Fc binding (Figure 3d): 57.8 and 10.3 and 41.1
[1]
  Binding, Neutrophils: 10.1 and 1.12 and 11.5
[2]
  Binding, B-cells: 8.11 and 1.36 and 3.18
[3]
  Binding, NK: 1.26 and 1.99 and 1.13
[4]
  Binding, T-cells: 2.32 and 2.93 and 4.67
[5]
  Binding, Monocytes: 7.43 and 2.68 and 5.18
[6]
  Siglec-7-Fc Binding: 9.54 and 11.2

B2: CD33-Fc R119A (protein, UniProt P20138 18-259, looked up, variant R119A)
extracellular domain: DPNFWLQVQESVTVQEGLCVLVPCTFFHPIPYYDKNSPVHGYWFREGAIISRDSPVATNKLDQEVQEETQGRFRLLGDPSRNNCSLSIVDARRRDNGSYFFAMERGSTKYSYKSPQLSVHVTDLTHRPKILIPGTLEPGHSKNLTCSVSWACEQGTPPIFSWLSAAPTSLGPRTTHSSVLIITPRPQDHGTNLTCQVKFAGAGVTTERTIQLNVTYVPQNPTTGIFPGDGSGKQETRAGVVH
modifications: extracellular domain fused to human IgG1 Fc
[7]; Figure 6a, +Neu-A
  CD33-Fc Binding: 106 and 114
[7]; Figure 6a, +Neu-S
  CD33-Fc Binding: 92.4 and 95.2
[7]; Figure 6a, WT cells (no neuraminidase)
  CD33-Fc Binding: 77.3 and 79
[7]; Figure 6b, +Neu-A
  CD33-Fc Binding: 74 and 74.9
[7]; Figure 6b, +Neu-S
  CD33-Fc Binding: 73 and 72.1 and 68.7
[7]; Figure 6b, WT cells (no neuraminidase)
  CD33-Fc Binding: 77.3 and 79
[8]
  CD33-Fc Binding: 42.3 and 56.8 and 61
